Measured values reported in patent US20220041738A1 (SAITAMA MEDICAL UNIVERSITY, published 2022).
Changes are numbered by the printed parent chain.

Tests used:
Experiment in all cases: immunofluorescence (legend of FIG. 4)
[1] = target: T1, human ALK2-P197_F198delinsL on cells (human, UniProt Q04771 21-509)
T1 construct: also called delP197_F198insL
T1 sequence: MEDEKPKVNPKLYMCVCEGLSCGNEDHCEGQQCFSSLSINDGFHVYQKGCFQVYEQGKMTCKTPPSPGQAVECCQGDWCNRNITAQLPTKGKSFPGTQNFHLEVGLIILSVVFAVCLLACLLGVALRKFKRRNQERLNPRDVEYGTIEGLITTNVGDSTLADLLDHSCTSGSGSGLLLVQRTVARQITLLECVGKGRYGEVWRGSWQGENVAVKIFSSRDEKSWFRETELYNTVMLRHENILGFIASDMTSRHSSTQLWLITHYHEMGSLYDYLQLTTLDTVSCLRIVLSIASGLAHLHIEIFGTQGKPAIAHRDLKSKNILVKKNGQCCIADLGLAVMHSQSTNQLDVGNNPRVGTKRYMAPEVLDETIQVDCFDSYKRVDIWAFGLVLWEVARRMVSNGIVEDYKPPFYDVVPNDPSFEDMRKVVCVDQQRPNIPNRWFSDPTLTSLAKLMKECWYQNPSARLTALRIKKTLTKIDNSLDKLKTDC
Procedure, shortened: (§1)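 C2C12 mouse myoblasts transfected overnight with human ALK2 cDNA (wild-type or FOP variants incl. G325A, pcDEF3 vector). Cells formalin-fixed, goat-serum blocked, stained 1 h RT with purified IgG at 10 µg/mL, then Alexa 594 anti-rat IgG 1 h; DAPI nuclei, fluorescence microscopy read-out.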

[2] = target: T2, human ALK2-R202I on cells (human, UniProt Q04771 21-509)
T2 sequence: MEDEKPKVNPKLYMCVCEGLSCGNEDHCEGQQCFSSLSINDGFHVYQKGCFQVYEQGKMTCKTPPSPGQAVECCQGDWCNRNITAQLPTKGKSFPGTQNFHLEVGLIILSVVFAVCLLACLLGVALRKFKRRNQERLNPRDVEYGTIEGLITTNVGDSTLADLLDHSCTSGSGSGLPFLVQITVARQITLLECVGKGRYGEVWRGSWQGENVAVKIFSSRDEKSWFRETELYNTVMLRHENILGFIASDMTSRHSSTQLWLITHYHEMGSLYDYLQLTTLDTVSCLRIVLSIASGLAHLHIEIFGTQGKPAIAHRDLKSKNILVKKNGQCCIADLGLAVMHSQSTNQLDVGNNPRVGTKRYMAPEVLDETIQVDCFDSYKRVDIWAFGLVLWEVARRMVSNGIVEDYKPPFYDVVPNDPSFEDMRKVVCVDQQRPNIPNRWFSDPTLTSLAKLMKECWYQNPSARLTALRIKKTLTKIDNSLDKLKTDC
Procedure, shortened: as §1

[3] = target: T3, human ALK2-R375P on cells (human, UniProt Q04771 21-509)
T3 sequence: T2 sequence with I182R, R355P
Procedure, shortened: as §1

Measured: binding result

B1: rat anti-ALK2 monoclonal antibody A2-11E (antibody, V domains shown)
VH: EVQLVETGGGLVQPGRSLKLSCVASGFTFSNYYMYWIRQAPGKGLEWISSINTDGGSTYYPDSVKGRFAISRDNAENTVYLQMNSLRSEDTATYYCAKSTPNIPLAYWGQGTLVTVSS
VL: DIQMTQSPSLLSASVGDRVTLSCKASQNIYKYLNWFQQKLGEAPKLLIYYSNSLQTGIPSRFSGSGSGTDFTLTISSLQPEDVAIYFCFQYSSGPTFGPGTKLELKR
notes: Rat monoclonal IgG from a hybridoma; also called 11E2
binds: all assays above

B2: rat anti-ALK2 monoclonal antibody A2-15A (antibody, V domains shown)
VH: EVQLVESGGGLVQPGRSLKLSCAASGFTFSHYYMAWVRQAPTKGLEWVASITNSGGSINYRDSVKGRFTISRDNAKSTLYLQMDSLRSEDTATYYCTREGGENYGGYPPFAYWGQGTLVTVSS
VL: DIVLTQSPALAVSLGQRATISCRANQGVSLSRYNLMHWYQQKPGQKPKLLIYRSSNLASGIPARFSGSGSGTDFTLTINPVQADDIATYYCQQSRESPFTFGAGTKLELKR
notes: Rat monoclonal IgG from a hybridoma; also called 15A6
binds: all assays above
